Test results: the supplement of paper PMC9112550, “Optimization of the antimicrobial peptide Bac7 by deep mutational scanning” (BMC Biology, 2022)

Tested on: Escherichia coli TOP10
Assay: shrunken log2 fold change of peptide-encoding DNA abundance (4.5 h post-induction vs induction); higher = less antimicrobial activity (less host growth inhibition)
Details: time post-induction: 4.5 h; library: site-saturation at positions 5, 18, 19, 20
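Also: peptides expressed intracellularly from a pBAD plasmid library in pooled LB shake-flask culture, induced with 0.3% L-arabinose, DNA abundance read by NGS, three biological replicates, DESeq2 with apeglm shrinkage.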

Sequence | shrunken log2 fold change
RRIRLRPPRLPRPRPRPCVHPRP | -0.377
RRIRLRPPRLPRPRPRPCWKPRP | 0.00126
RRIRLRPPRLPRPRPRPCWRPRP | 0.0285
RRIRLRPPRLPRPRPRPCYDPRP | 0.00693
RRIRLRPPRLPRPRPRPDAPPRP | 0.313
RRIRLRPPRLPRPRPRPDCGPRP | 0.0932
RRIRLRPPRLPRPRPRPDCWPRP | 0.362
RRIRLRPPRLPRPRPRPDDMPRP | 0.0411
RRIRLRPPRLPRPRPRPDEPPRP | -0.0538
RRIRLRPPRLPRPRPRPDFDPRP | -0.047
RRIRLRPPRLPRPRPRPDFHPRP | -0.206
RRIRLRPPRLPRPRPRPDGIPRP | -0.0391
RRIRLRPPRLPRPRPRPDGSPRP | 0.0129
RRIRLRPPRLPRPRPRPDGTPRP | 0.245
RRIRLRPPRLPRPRPRPDITPRP | -0.00678
RRIRLRPPRLPRPRPRPDKYPRP | -0.769
RRIRLRPPRLPRPRPRPDLMPRP | -0.145
RRIRLRPPRLPRPRPRPDNCPRP | -0.0891
RRIRLRPPRLPRPRPRPDNDPRP | -0.228
RRIRLRPPRLPRPRPRPDNTPRP | -0.386
RRIRLRPPRLPRPRPRPDQNPRP | -0.0565
RRIRLRPPRLPRPRPRPDQSPRP | 0.0621
RRIRLRPPRLPRPRPRPDQTPRP | 0.0206
RRIRLRPPRLPRPRPRPDREPRP | 0.0246
RRIRLRPPRLPRPRPRPDRKPRP | -0.0365

Sequence | shrunken log2 fold change
RRIRLRPPRLPRPRPRPDRWPRP | -0.0824
RRIRLRPPRLPRPRPRPDSEPRP | 0.482
RRIRLRPPRLPRPRPRPDTKPRP | -0.122
RRIRLRPPRLPRPRPRPDVQPRP | 0.0463
RRIRLRPPRLPRPRPRPDWGPRP | 0.222
RRIRLRPPRLPRPRPRPDWLPRP | 0.318
RRIRLRPPRLPRPRPRPDYKPRP | -0.354
RRIRLRPPRLPRPRPRPDYTPRP | -0.295
RRIRLRPPRLPRPRPRPEAKPRP | 0.0204
RRIRLRPPRLPRPRPRPEAVPRP | -0.0408
RRIRLRPPRLPRPRPRPECLPRP | -0.00237
RRIRLRPPRLPRPRPRPEDRPRP | -0.0181
RRIRLRPPRLPRPRPRPEIIPRP | 0.179
RRIRLRPPRLPRPRPRPEKDPRP | 0.191
RRIRLRPPRLPRPRPRPEKEPRP | 0.263
RRIRLRPPRLPRPRPRPEKRPRP | -0.148
RRIRLRPPRLPRPRPRPEKYPRP | -0.397
RRIRLRPPRLPRPRPRPEMHPRP | -0.132
RRIRLRPPRLPRPRPRPEPFPRP | -0.0343
RRIRLRPPRLPRPRPRPEPQPRP | 0.728
RRIRLRPPRLPRPRPRPEQVPRP | -0.117
RRIRLRPPRLPRPRPRPERDPRP | -0.189
RRIRLRPPRLPRPRPRPERVPRP | 0.0357
RRIRLRPPRLPRPRPRPETIPRP | 0.0243
RRIRLRPPRLPRPRPRPEVAPRP | 0.475

Sequence | shrunken log2 fold change
RRIRLRPPRLPRPRPRPEVCPRP | -0.0515
RRIRLRPPRLPRPRPRPEVLPRP | -0.0871
RRIRLRPPRLPRPRPRPEYDPRP | 0.0855
RRIRLRPPRLPRPRPRPFEDPRP | -0.193
RRIRLRPPRLPRPRPRPFELPRP | -0.519
RRIRLRPPRLPRPRPRPFIHPRP | -0.807
RRIRLRPPRLPRPRPRPFIMPRP | -0.79
RRIRLRPPRLPRPRPRPFKDPRP | -0.023
RRIRLRPPRLPRPRPRPFKEPRP | -0.169
RRIRLRPPRLPRPRPRPFLDPRP | -0.228
RRIRLRPPRLPRPRPRPFLRPRP | -0.429
RRIRLRPPRLPRPRPRPFMQPRP | 0.0179
RRIRLRPPRLPRPRPRPFNVPRP | -0.485
RRIRLRPPRLPRPRPRPFPLPRP | -0.0787
RRIRLRPPRLPRPRPRPFPYPRP | 0.015
RRIRLRPPRLPRPRPRPFTWPRP | -0.369
RRIRLRPPRLPRPRPRPFVQPRP | -0.284
RRIRLRPPRLPRPRPRPFYPPRP | -0.504
RRIRLRPPRLPRPRPRPGCKPRP | -0.0977
RRIRLRPPRLPRPRPRPGCWPRP | 0.482
RRIRLRPPRLPRPRPRPGDNPRP | 0.0735
RRIRLRPPRLPRPRPRPGEEPRP | 0.143
RRIRLRPPRLPRPRPRPGEFPRP | 2.05
RRIRLRPPRLPRPRPRPGENPRP | -0.00192
RRIRLRPPRLPRPRPRPGEPPRP | -0.0262
